{
  "source": "patent US20040043959A1",
  "about": "“Combination therapies for treating methylthioadenosine phosphorylase deficient cells” (priority 2002, published 2004)",
  "proteins": {"B1": {"name": "Human MTAP (Homo sapiens) (protein)", "chain": "MASGTTTTAVKIGIIGGTGLDDPEILEGRTEKYVDTPFGKPSDALILGKIKNVDCVLLARHGRQHTIMPSKVNYQANIWALKEEGCTHVIVTTACGSLREEIQPGDIVIIDQFIDRTTMRPQSFYDGSHSCARGVCHIPMAEPFCPKTREVLIETAKKLGLRCHSKGTMVTIEGPRFSSRAESFMFRTWGADVINMTTVPEVVLAKEAGICYASIAMATDYDCWKEHEEAVSVDRVLKTLKENANKAKSLLLTTIPQIGSTEWSETLHNLKNMAQFSVLLPRH", "notes": "six-histidine tag (His6) (N); made in house; host or cells: E. coli BL21 DE3"}},
  "experiment_in_all_cases": "MTAP substrate assay, coupled spectrophotometric (adenine, xanthine oxidase)",
  "assay_type_in_all_cases": "biochemical, human",
  "settings_in_all_cases": "other: substrate of MTAP, 37° C.",
  "key": {"[1]": {"substrate": "Nc1ncnc2c1ncn2[C@@H]1O[C@H](CSCc2ccc(Cl)cc2)[C@@H](O)[C@H]1O", "experimental": "(§1) An enzymatic assay to determine the activity of MTAP against a given substrate was performed. Human MTAP containing an N-terminal six-histidine tag was expressed in E. coli BL21 DE3 cells. The protein was purified to homogeneity by Ni2+ affinity chromatography. Enzymatic activity was measured using a coupled spectrophotometric assay designed to monitor the reaction product adenine (Savarese, T. M., Crabtree, G. W., and Parks, R. E. Jr., (1980) Biochem. Pharmacol. 30, 189-199). Various concentrations of the indicated 5′-deoxymethylthio adenosine (MTA) or substrate were incubated in assay buffer (40 mM potassium phosphate buffer, 1 mM, and DTT 0.8 units/ml xanthine oxidase coupling enzyme) for 5 minutes at 37° C. The reaction was initiated by the addition of MTAP. The exact concentration of enzyme used varied for each substrate tested and ranged from 2 nM to 500 nM. Activity as a function of enzyme concentration was determined for each substrate tested to ensure that the appropriate enzyme concentration was used. Activity was detected by continuous monitoring of absorbance at 305 nm for 10 minutes (ΔE=15,500 M^−1).\n(§2) Library compounds (10 and 50 uM) were tested using the assay described above with 2 nM MTAP enzyme. The resultant initial velocities are reported as a percentage of the initial velocity observed when MTA is the substrate. MTA controls, 10 and 50 uM concentrations, were run on each plate alongside the library compounds."}, "[2]": {"substrate": "Nc1ncnc2c1ncn2[C@@H]1O[C@H](CSC2CCCC2)[C@@H](O)[C@H]1O", "experimental": "as §1, §2"}, "[3]": {"substrate": "CCOC(=O)CCSC[C@H]1O[C@@H](n2cnc3c(N)ncnc32)[C@H](O)[C@@H]1O", "experimental": "as §1, §2"}, "[4]": {"substrate": "COc1ccccc1SC[C@H]1O[C@@H](n2cnc3c(N)ncnc32)[C@H](O)[C@@H]1O", "experimental": "as §1, §2"}, "[5]": {"substrate": "CSC[C@@H]1C[C@@H](O)[C@H](n2cnc3c(N)ncnc32)O1", "experimental": "as §1, §2"}, "[6]": {"substrate": "Nc1ncnc2c1ncn2[C@@H]1O[C@H](CSc2ccccn2)[C@@H](O)[C@H]1O", "experimental": "as §1, §2"}, "[7]": {"substrate": "Nc1ncnc2c1ncn2[C@@H]1O[C@H](CSc2nccs2)[C@@H](O)[C@H]1O", "experimental": "as §1, §2"}, "[8]": {"substrate": "CCN(C)C(=O)[C@H]1O[C@@H](n2cnc3c(N)ncnc32)[C@H](O)[C@@H]1O", "experimental": "as §1, §2"}, "[9]": {"substrate": "C[C@H]1O[C@@H](n2cnc3c(N)ncnc32)[C@H](O)[C@@H]1O", "experimental": "as §1, §2"}, "[10]": {"substrate": "CSC[C@H]1O[C@@H](n2cnc3c(N)ncnc32)[C@H](N=[N+]=[N-])[C@@H]1O", "experimental": "as §1, §2"}, "[11]": {"substrate": "CCSC[C@H]1O[C@@H](n2cnc3c(N)ncnc32)[C@H](O)[C@@H]1O", "experimental": "as §1, §2"}, "[12]": {"substrate": "Cc1ccccc1CSC[C@H]1O[C@@H](n2cnc3c(N)ncnc32)[C@H](O)[C@@H]1O", "experimental": "as §1, §2"}, "[13]": {"substrate": "NCCSC[C@H]1O[C@@H](n2cnc3c(N)ncnc32)[C@H](O)[C@@H]1O", "experimental": "as §1, §2"}, "[14]": {"substrate": "Cc1ccc(SC[C@H]2O[C@@H](n3cnc4c(N)ncnc43)[C@H](O)[C@@H]2O)cc1", "experimental": "as §1, §2"}, "[15]": {"substrate": "Nc1ncnc2c1ncn2[C@@H]1O[C@H](C(=O)NCCO)[C@@H](O)[C@H]1O", "experimental": "as §1, §2"}, "[16]": {"substrate": "Nc1ncnc2c1ncn2[C@@H]1O[C@H](CSC2CCCCC2)[C@@H](O)[C@H]1O", "experimental": "as §1, §2"}, "[17]": {"substrate": "CCOC(=O)CC[C@H]1O[C@@H](n2cnc3c(N)ncnc32)[C@H](O)[C@@H]1O", "experimental": "as §1, §2"}, "[18]": {"substrate": "Nc1ncnc2c1ncn2[C@@H]1O[C@H](CNc2ccccc2)[C@@H](O)[C@H]1O", "experimental": "as §1, §2"}, "[19]": {"substrate": "Nc1ncnc2c1ncn2[C@@H]1O[C@H](CSc2ccncc2)[C@@H](O)[C@H]1O", "experimental": "as §1, §2"}},
  "data": [
    {"protein": "B1", "values": [
      {"measurement": "Km", "setting": "[1]", "value": 3.9, "unit": "µM"},
      {"measurement": "kcat", "setting": "[1]", "value": 3.3, "unit": "s⁻¹"},
      {"measurement": "Km", "setting": "[2]", "value": 3.2, "unit": "µM"},
      {"measurement": "kcat", "setting": "[2]", "value": 1.5, "unit": "s⁻¹"},
      {"measurement": "Km", "setting": "[3]", "value": 4.3, "unit": "µM"},
      {"measurement": "kcat", "setting": "[3]", "value": 1.54, "unit": "s⁻¹"},
      {"measurement": "Km", "setting": "[4]", "value": 13, "unit": "µM"},
      {"measurement": "kcat", "setting": "[4]", "value": 0.13, "unit": "s⁻¹"},
      {"measurement": "Km", "setting": "[5]", "value": 3.9, "unit": "µM"},
      {"measurement": "kcat", "setting": "[5]", "value": 0.004, "unit": "s⁻¹"},
      {"measurement": "Km", "setting": "[6]", "value": 5.2, "unit": "µM"},
      {"measurement": "kcat", "setting": "[6]", "value": 3.44, "unit": "s⁻¹"},
      {"measurement": "Km", "setting": "[7]", "value": 3.4, "unit": "µM"},
      {"measurement": "kcat", "setting": "[7]", "value": 2.49, "unit": "s⁻¹"},
      {"measurement": "Km", "setting": "[8]", "value": 300, "unit": "µM"},
      {"measurement": "kcat", "setting": "[8]", "value": 0.8, "unit": "s⁻¹"},
      {"measurement": "Km", "setting": "[9]", "value": 6, "unit": "µM"},
      {"measurement": "kcat", "setting": "[9]", "value": 4.8, "unit": "s⁻¹"},
      {"measurement": "Km", "setting": "[10]", "value": 3600, "unit": "µM"},
      {"measurement": "kcat", "setting": "[10]", "value": 0.04, "unit": "s⁻¹"},
      {"measurement": "Km", "setting": "[11]", "value": 1.8, "unit": "µM"},
      {"measurement": "kcat", "setting": "[11]", "value": 2.9, "unit": "s⁻¹"},
      {"measurement": "Km", "setting": "[12]", "value": 10, "unit": "µM"},
      {"measurement": "kcat", "setting": "[12]", "value": 0.79, "unit": "s⁻¹"},
      {"measurement": "Km", "setting": "[13]", "value": 390, "unit": "µM"},
      {"measurement": "kcat", "setting": "[13]", "value": 0.141, "unit": "s⁻¹"},
      {"measurement": "Km", "setting": "[14]", "value": 1.5, "unit": "µM"},
      {"measurement": "kcat", "setting": "[14]", "value": 1.44, "unit": "s⁻¹"},
      {"measurement": "Km", "setting": "[15]", "value": 1000, "unit": "µM"},
      {"measurement": "kcat", "setting": "[15]", "value": 3, "unit": "s⁻¹"},
      {"measurement": "Km", "setting": "[16]", "value": 3.5, "unit": "µM"},
      {"measurement": "kcat", "setting": "[16]", "value": 1.57, "unit": "s⁻¹"},
      {"measurement": "Km", "setting": "[17]", "value": 5.95, "unit": "µM"},
      {"measurement": "kcat", "setting": "[17]", "value": 4.12, "unit": "s⁻¹"},
      {"measurement": "Km", "setting": "[18]", "value": 8.5, "unit": "µM"},
      {"measurement": "kcat", "setting": "[18]", "value": 2.02, "unit": "s⁻¹"},
      {"measurement": "Km", "setting": "[19]", "value": 0.88, "unit": "µM"},
      {"measurement": "kcat", "setting": "[19]", "value": 0.23, "unit": "s⁻¹"}
    ]}
  ]
}
